Assay results taken from IntAct's records for PubMed 15485833.

B1: Actin nucleation-promoting factor WASL (Homo sapiens), O00401 (parent)
chain: MSSVQQQPPPPRRVTNVGSLLLTPQENESLFTFLGKKCVTMSSAVVQLYAADRNCMWSKKCSGVACLVKDNPQRSYFLRIFDIKDGKLLWEQELYNNFVYNSPRGYFHTFAGDTCQVALNFANEEEAKKFRKAVTDLLGRRQRKSEKRRDPPNGPNLPMATVDIKNPEITTNRFYGPQVNNISHTKEKKKGKAKKKRLTKADIGTPSNFQHIGHVGWDPNTGFDLNNLDPELKNLFDMCGISEAQLKDRETSKVIYDFIEKTGGVEAVKNELRRQAPPPPPPSRGGPPPPPPPPHNSGPPPPPARGRGAPPPPPSRAPTAAPPPPPPSRPSVAVPPPPPNRMYPPPPPALPSSAPSGPPPPPPSVLGVGPVAPPPPPPPPPPPGPPPPPGLPSDGDHQVPTTAGNKAALLDQIREGAQLKKVEQNSRPVSCSGRDALLDQIRQGIQLKSVADGQESTPPTPAPTSGIVGALMEVMQKRSKAIHSSDEDEDEDDEEDFEDDDEWED

Variants of: B1
Details: with arpc1_yeast ARC40, P38328
arpc1_yeast ARC40, P38328, sequence (P38328 whole entry): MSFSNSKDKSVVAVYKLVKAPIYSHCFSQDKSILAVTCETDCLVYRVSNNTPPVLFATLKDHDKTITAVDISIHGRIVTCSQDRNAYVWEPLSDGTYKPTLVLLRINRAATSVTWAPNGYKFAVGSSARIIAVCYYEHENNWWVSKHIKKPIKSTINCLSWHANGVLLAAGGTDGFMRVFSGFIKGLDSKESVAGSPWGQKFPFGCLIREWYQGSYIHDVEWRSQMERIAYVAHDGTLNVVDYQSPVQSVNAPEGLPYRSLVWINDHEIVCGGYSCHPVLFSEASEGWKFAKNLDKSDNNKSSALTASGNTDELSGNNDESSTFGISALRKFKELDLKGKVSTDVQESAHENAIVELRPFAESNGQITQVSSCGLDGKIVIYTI

Row | effect of a mutation on the interaction | Variant
1 | decreasing interaction | W503A

Variants of: B1
Details: with arp3_yeast ARP3, P47117
arp3_yeast ARP3, P47117, sequence (P47117 whole entry): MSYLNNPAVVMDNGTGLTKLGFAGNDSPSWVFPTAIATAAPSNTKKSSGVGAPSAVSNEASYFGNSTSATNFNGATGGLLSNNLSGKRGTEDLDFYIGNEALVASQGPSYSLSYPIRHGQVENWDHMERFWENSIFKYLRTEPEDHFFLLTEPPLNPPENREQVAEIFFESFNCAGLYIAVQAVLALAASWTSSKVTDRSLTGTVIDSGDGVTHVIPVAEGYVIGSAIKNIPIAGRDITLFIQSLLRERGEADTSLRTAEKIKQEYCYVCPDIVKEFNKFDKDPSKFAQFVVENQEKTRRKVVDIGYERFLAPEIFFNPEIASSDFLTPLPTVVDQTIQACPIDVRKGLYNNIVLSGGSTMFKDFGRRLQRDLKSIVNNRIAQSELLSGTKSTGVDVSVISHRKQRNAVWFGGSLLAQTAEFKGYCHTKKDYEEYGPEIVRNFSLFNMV

Row | effect of a mutation on the interaction | Variant
2 | decreasing interaction | W503A

Variants of: B1
Details: with arp2_yeast ARP2, P32381
arp2_yeast ARP2, P32381, sequence (P32381 whole entry): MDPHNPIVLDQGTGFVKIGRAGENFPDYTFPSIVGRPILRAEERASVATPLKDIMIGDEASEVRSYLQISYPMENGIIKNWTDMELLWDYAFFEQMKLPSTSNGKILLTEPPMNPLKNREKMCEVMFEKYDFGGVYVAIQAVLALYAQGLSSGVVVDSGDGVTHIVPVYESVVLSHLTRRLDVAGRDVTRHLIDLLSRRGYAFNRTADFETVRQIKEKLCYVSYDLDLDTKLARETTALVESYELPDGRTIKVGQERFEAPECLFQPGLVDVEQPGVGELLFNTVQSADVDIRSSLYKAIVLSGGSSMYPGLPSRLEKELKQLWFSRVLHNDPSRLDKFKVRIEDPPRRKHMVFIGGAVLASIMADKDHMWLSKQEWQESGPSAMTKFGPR

Row | effect of a mutation on the interaction | Variant
3 | decreasing interaction | W503A
